Measured values taken from FireProtDB (doi:10.1002/pro.5560061014).

B1: Barstar, P11540 (parent)
chain: MKKAVINGEQIRSISDLHQTLKKELALPEYYGENLDALWDCLTGWVEYPLVLEWRQFEQSKQLTENGAESVLQVFREAKAEGCDITIILS

Variants of: B1
Conditions: Bacillus amyloliquefaciens; pH 7.4; 25 °C; Thermal; DSC; Sodium phosphate 50 mM; reversible: yes; structure 1BTA; whole UniProt chain shown
In the case of C83A, the “heat capacity change of unfolding” value is reported as 0.86 kcal/mol/K and the unfolding free energy is reported as 6.1 kcal/mol.

Same assay, conditions: Bacillus amyloliquefaciens; pH 7.4; Thermal; DSC; Sodium phosphate 50 mM; reversible: yes; structure 1BTA; whole UniProt chain shown
With C83A the Tm was 71.4 °C, the “change of melting temperature, mutant - wild type (higher = more stable)” value was -1.4 °C and the “heat capacity change of unfolding” value was 0.86 kcal/mol/K. For the same variant, the “unfolding enthalpy (calorimetric)” value was 66 kcal/mol.
